For 1 substance, rosette leaves formed before flowering, tfl mutation in combination with the 35S::SEP3 transgene (rosette leaves) and rosette leaves produced before flowering, 35S::AP1 35S::SEP3 doubly transgenic plants (rosette leaves) results are on record in patent US20040229366A1.

This test addresses AP1 expressed in planta (35S::AP1 transgene, or ectopically activated in the tfl mutant) (Arabidopsis thaliana) (UniProt P35631). As to the kind of experiment: cell-based or functional assay.

Sequence of AP1 expressed in planta (35S::AP1 transgene, or ectopically activated in the tfl mutant) (Arabidopsis thaliana) (P35631 whole entry, change not shown): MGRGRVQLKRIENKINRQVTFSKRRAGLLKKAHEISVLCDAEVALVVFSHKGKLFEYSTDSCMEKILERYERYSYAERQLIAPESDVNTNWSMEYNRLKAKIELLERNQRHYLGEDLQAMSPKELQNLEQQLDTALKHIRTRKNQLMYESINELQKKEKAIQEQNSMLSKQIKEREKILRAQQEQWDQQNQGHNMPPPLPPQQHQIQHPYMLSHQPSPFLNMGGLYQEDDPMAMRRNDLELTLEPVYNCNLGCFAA

As to “SEP3 expressed from the 35S::SEP3 transgene in Arabidopsis (from UniProt O22456 1-251)”, the rosette leaves formed before flowering, tfl mutation in combination with the 35S::SEP3 transgene (rosette leaves) is 2 and the rosette leaves produced before flowering, 35S::AP1 35S::SEP3 doubly transgenic plants (rosette leaves) came to 2.
